Reference: patent publication US7329737 (DYAX, dated 2008)

Molecular target: T1, hK1 (human tissue kallikrein 1), recombinant (human, UniProt P06870 25-262)
T1 construct: Expressed in P. pastoris from KLK1 cDNA and purified; enzymatically active; also called KLK1; Recombinant (Pichia) Kallikrein
Assay: SPR

| Binder | Kd [nM] | koff [s⁻¹] | kon [M⁻¹ s⁻¹] |
| --- | --- | --- | --- |
| M0108-E10 (Fab, V domains shown) VH: EVQLLESGGGLVQPGGSLRLSCAASGFTFSRYRMVWVRQAPGKGLEWVSSIYPSGGYTKYADSVKGRFTISRDNSKNTLYLQMNSLRAEDTAVYYCARVITYNNFDSWGQGTLVTVSS VL: DIQMTQSPGTLSLSPGERATLSCRASQTVSSTYLAWYQQKPGQAPRLLIYGASSRATGIPDRFSGGGSGTDFTLTISRLEPEDFAVYYCQQYGSSPPRYTFGQGTKLEIKR | 58.4 | 0.0134 | 230000 |
| M0102-D07 (Fab, V domains shown) VH: EVQLLESGGGLVQPGGSLRLSCAASGFTFSRYWMWWVRQAPGKGLEWVSSIGPSGGATRYADSVKGRFTISRDNSKNTLYLQMNSLRAEDTAVYYCTTGSAGNWGQGTLVTVSS VL: DIQMTQSPGTLSLSPGERATLSCGASQSVSTTYIAWYQHKPGQPPRLLIYGASNRATGIPDRFRGSGSGTDFTLTISRLEPEDFAVYYCQQYGSSPYTFGQGTKLEIKR | 78.6 | 0.0122 | 155000 |
| M0113-G11 (Fab, V domains shown) VH: EVQLLESGGGLVQPGGSLRLSCAASGFTFSHYMMQWVRQAPGKGLEWVSGIGPSGGWTKYADSVKGRFTISRDNSKNTLYLQMNSLRAEDTALYYCARLNYGDYVWGQGTLVTVSS VL: not shown | 42.5 | 0.0121 | 286000 |
| M0104-D12 (Fab, V domains shown) VH: EVQLLESGGGLVQPGGSLRLSCAASGFTFSHYAMFWVRQAPGKGLEWVSSIWPSGGKTMYADSVKGRFTISRDNSKNTLYLQMNSLRAEDTATYYCARGGSYLAFDIWGQGTMVTVSS VL: DIQMTQSPSSLSASVGDRVTITCRASLSVSGYLNWYQHKPGRAPNLLIYATSSLQSGVPSRFSGSGSGTDFTLTVSSLQPEDLATYYCQQSYSSPYTFGQGTKVEIKG | 61.3 | 0.0192 | 314000 |
| M0112-D04 (Fab, V domains shown) VH: EVQLLESGGGLVQPGGSLRLSCAASGFTFSHYVMVWVRQAPGKGLEWVSGIRSSGGVTAYADSVKGRFTISRDNSKNTLYLQMNSLRAEDTAMYYCARVGVWYGMDVWGQGTTVTVSS VL: AQSALTQPLSVSVALGQTARITCGGNNIGSKNVHWYQQKPGQAPVLVIYRDSNRPSGIPERFSGSNSGNTATLTISGAQAGDEADYYCQVWDSSTVFGGGTKLTVLG | 54.2 | 0.00956 | 176000 |
| M0115-F04 (Fab, V domains shown) VH: EVQLLESGGGLVQPGGSLRLSCAASGFTFSNYLMGWVRQAPGKGLEWVSSIGPSGGYTKYADSVKGRFTISRDNSKNTLYLQMNSLRAEDTAVYYCARGTGTTFFWGQGTLVTVSS VL: AQSALTQPPSVSVSPGQTVSITCSGDDLGGRHVSWFQQLSGQSPVLVIYQDDKRPSGIPERFSGSNSGNTATLTISGTQSVDEGDYYCLAWHNYKYVFGSGTTVTVLR | 41.6 | 0.0131 | 314000 |
| M0102-C02 (Fab, V domains shown) VH: EVQLLESGGGLVQPGGSLRLSCAASGFTFSHYLMHWVRQAPGKGLEWVSSIYPSGGKTQYADSVKGRFTISRDNSKNTLYLQMNSLRAEDTAVYYCARVFGYYDFWSGYPGAFDYWGQGTLVTVSS VL: DIQMTQSPSSLSASVGDRVTITCRASQGISSSLAWYQQKPGKVPKLLIYAASTLQSGVPSRFSGSGSGTDFTLTISSLQPEDFATYYCQQSYSTPWTFGQGTKVEIKR | 43.5 | 0.00628 | 144000 |
| M0116-E08 (Fab, V domains shown) VH: EVQLLESGGGLVQPGGSLRLSCAASGFTFSRYPMIWVRQAPGKGLEWVSVIYPSGGMTKYADSVKGRFTISRDNSKNTLYLQMNSLRAEDTAVYYCARVGSYGSLGYWGQGTLVTVSS VL: DIQMTQSPSSLSASVGDRVTITCLASQSISSYLNWYQQKPGKAPKLLIYDASSLESGVPSRFSGSGSGTDFTLTISSLQPEDFAIYYCQQFNGYPPITFGQGTRLEIKR | 72.7 | 0.0164 | 225000 |

Second part, the binder after the results:

| Kd [nM] | koff [s⁻¹] | kon [M⁻¹ s⁻¹] | Binder |
| --- | --- | --- | --- |
| 37 | 0.00472 | 128000 | M0131-F12 (Fab, V domains shown) VH: EVQLLESGGGLVQPGGSLRLSCAASGFTFSRYAMGWVRQAPGKGLEWVSYIGPSGGNTTYADSVKGRFTISRDNSKNTLYLQMNSLRAEDTAVYYCARDVGGSGSYYMLSYYYYGMDVWGQGTMVTVSS VL: not shown |
| 36.4 | 0.00884 | 243000 | M0103-E09 (Fab, V domains shown) VH: EVQLLESGGGLVQPGGSLRLSCAASGFTFSHYSMLWVRQAPGKGLEWVSSIRPSGGFTKYADSVKGRFTISRDNSKNTLYLQMNSLRAEDTAVYYCARRGVWDAFDIWGQGTMVTVSS VL: AQYELTQPASVSGSPGQSITISCTGTNTDVGGYNFVSWYQQYPGKAPKLIIFDVTNRPSGVSNRFSGSKSGNTASLTISGLQAEDEADYYCCSYTNTNTLVFAGGTKVTVLG |
| 33.1 | 0.0117 | 353000 | M0097-F08 (Fab, V domains shown) VH: EVQLLESGGGLVQPGGSLRLSCAASGFTFSNYPMVWVRQAPGKGLEWVSVIGPSGGKTKYADSVKGRFTISRDNSKNTLYLQMNSLRAEDTAVYYCARVGVWYGMDVWGQGTTVTVSS VL: DIQMTQSPSTLSASVGDRVTISCRASQGIGTHLNWYQQKLGNVPKLLIYAASGLQSGVPPRFSGSGSGTDFTLTISSLHPEDSATYFCQQSYSVPRTFGQGTKVEIKR |
| 33.8 | 0.0203 | 600000 | M0107-B05 (Fab, V domains shown) VH: EVQLLESGGGLVQPGGSLRLSCAASGFTFSHYLMMWVRQAPGKGLEWVSSIRSSGGITRYADSVKGRFTISRDNSKNTLYLQMNSLRAEDTAVYYCARVGYYYGMDVWGQGTTVTVSS VL: AQSELTQPASVSGSPGQSITISCTGTSSDVGAYNYVSWYQQHPGKVPKLMIYEVSNRPSGVSNRFSGSKSGNTASLTISGLQAEDEADYYCNSYTTSATLVFGGGTKLTVLS |
| 33.9 | 0.0114 | 336000 | M0124-A01 (Fab, V domains shown) VH: EVQLLESGGGLVQPGGSLRLSCAASGFTFSNYPMYWVRQAPGKGLEWVSRIGPSGGHTDYADSVKGRFTISRDNSKNTLYLQMNSLRAEDTAVYYCARAGVWSGLDYWGQGTLVTVSS VL: DIQMTQSPSSLSASVGDRVTITCRASQSITGYLNWYQQKPGKAPKLLIYAASSLQSGVPSRFSGSGSGTDFTLSISSLQPEDFATYYCQQSYSTPYTFGQGTKLEIKR |
| 40.7 | 0.00578 | 142000 | M0093-C08 (Fab, V domains shown) VH: EVQLLESGGGLVQPGGSLRLSCAASGFTFSRYPMGWVRQAPGKGLEWVSSIYPSGGSTYYADSVKGRFTISRDNSKNTLYLQMNSLRAEDTAVYYCARVGVWYGMDVWGQGTTVTVSS VL: DIQMTQSPGTLSLSPGERATLSCRASQSVSSSYLAWYQQKPGQAPRLLIFAASTRATGIPDRFSGSGSATDFTLTISSLEPEDFAVYYCQQRSNWPPELTFSGGTKVEIKR |
| 33 | 0.00661 | 200000 | M0136-B06 (Fab, V domains shown) VH: EVQLLESGGGLVQPGGSLRLSCAASGFTFSSYIMIWVRQAPGKGLEWVSYIRPSGGYTKYADSVKGRFTISRDNSKNTLYLQMNSLRAEDTAVYYCARVINAGPGRGYYWRGYSYSDAFDIWGQGTMVTVSS VL: not shown |
